We go through 9 molecules from publication doi:10.1101/2025.11.06.685569 (bioRxiv, 2025).

First the molecules themselves.
B3: FLAG-tagged Atg9^NTR (domain or fragment, S. cerevisiae, UniProt Q12142 1-318, looked up)
chain: MERDEYQLPNSHGKNTFLSRIFGLQSDEVNPSLNSQEMSNFPLPDIERGSSLLHSTNDSREDVDENDLRVPESDQGTSTEEEDEVDEEQVQAYAPQISDGLDGDHQLNSVTSKENVLETEKSNLERLVEGSTDDSVPKVGQLSSEEEEDNEFINNDGFDDDTPLFQKSKIHEFSSKKSNTIEDGKRPLFFRHILQNNRPQRDTQKLFTSSNAIHHDKDKSANNGPRNINGNQKHGTKYFGSATQPRFTGSPLNNTNRFTKLFPLRKPNLLSNISVLNNTPEDRINTLSVKERALWKWANVENLDIFLQDVYNYYLGNG
B4: Myc-tagged Atg23 (natural protein, S. cerevisiae, UniProt Q06671 1-453, looked up)
chain: MELNQVLEKKEQILQYLGTLVGLHEKALSDVNSASQVTSIRKDITICLNDLCRINDLLVSHDGLLKREIGSLLRDKQELLELNEREQLLWKERKSWHIKQETDAAPADYVIDKDAIITISSHHRTSLNKYIESVGAENTILSNTDDSDAMIEEVQNAESSADQMIRNYKLLQLSHKQAKSEIIRLETLLRDFKKDNKFIEEELKRQSGRIRSEMGNIDFHLSKIEESKHQLMKRIGFESPLTQEKSLSEKIFNLRLSSADEDYNERQTINMKNFVHMKDLIELKIEDLQEQLMRNKNESSTVLTQRELWLDCQKKVGDLESKLITKLRSSSNSKIPPNEMSEMINSTIQYLNNLLDSSDEKLTTTLISNERDVLSKACEELHSESTTAQDGSSALPSKPIDIHKSHKGSNASSNLKQPSTPSFLVASKSPPKIGISESVVNANKNDAISKKVE
B5: untagged Atg23 (natural protein, S. cerevisiae, UniProt Q06671 1-453, looked up)
chain: MELNQVLEKKEQILQYLGTLVGLHEKALSDVNSASQVTSIRKDITICLNDLCRINDLLVSHDGLLKREIGSLLRDKQELLELNEREQLLWKERKSWHIKQETDAAPADYVIDKDAIITISSHHRTSLNKYIESVGAENTILSNTDDSDAMIEEVQNAESSADQMIRNYKLLQLSHKQAKSEIIRLETLLRDFKKDNKFIEEELKRQSGRIRSEMGNIDFHLSKIEESKHQLMKRIGFESPLTQEKSLSEKIFNLRLSSADEDYNERQTINMKNFVHMKDLIELKIEDLQEQLMRNKNESSTVLTQRELWLDCQKKVGDLESKLITKLRSSSNSKIPPNEMSEMINSTIQYLNNLLDSSDEKLTTTLISNERDVLSKACEELHSESTTAQDGSSALPSKPIDIHKSHKGSNASSNLKQPSTPSFLVASKSPPKIGISESVVNANKNDAISKKVE
B8: FLAG-tagged Atg9^CTR (domain or fragment, S. cerevisiae, UniProt Q12142 758-997, looked up)
chain: ENSEYVDGLGYVCKYAMFNMKNIDGEDTHSMDEDSLTKKIAVNGSHTLNSKRRSKFTAEDHSDKDLANNKMLQSYVYFMDDYSNSENLTGKYQLPAKKGYPNNEGDSFLNNKYSWRKQFQPGQKPELFRIGKHALGPGHNISPAIYSTRNPGKNWDNNNNGDDIKNGTNNATAKNDDNNGNNDHEYVLTESFLDSGAFPNHDVIDHNKMLNSNYNGNGILNKGGVLGLVKEYYKKSDVGR

Series [1] concerns the target T1, Atg23 (no tag named in the legend) (S. cerevisiae, UniProt Q06671 1-453).
T1 sequence (looked up): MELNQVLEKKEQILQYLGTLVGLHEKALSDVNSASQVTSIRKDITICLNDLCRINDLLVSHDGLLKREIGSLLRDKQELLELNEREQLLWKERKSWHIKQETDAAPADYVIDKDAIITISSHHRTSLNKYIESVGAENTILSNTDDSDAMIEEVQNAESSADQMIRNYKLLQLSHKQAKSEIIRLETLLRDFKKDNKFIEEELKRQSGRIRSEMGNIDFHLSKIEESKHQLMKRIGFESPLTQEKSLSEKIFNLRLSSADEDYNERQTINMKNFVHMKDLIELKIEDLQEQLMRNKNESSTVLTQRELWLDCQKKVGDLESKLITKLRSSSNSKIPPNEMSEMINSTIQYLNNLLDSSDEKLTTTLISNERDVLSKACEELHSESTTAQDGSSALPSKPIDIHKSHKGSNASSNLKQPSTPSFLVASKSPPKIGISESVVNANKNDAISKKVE
Kind of series: pull-down.

Series [2] deals with B8. Kind of series: pull-down.
The target in another series is T2, FLAG-tagged Atg23 (S. cerevisiae, UniProt Q06671 1-453).
T2 sequence (looked up): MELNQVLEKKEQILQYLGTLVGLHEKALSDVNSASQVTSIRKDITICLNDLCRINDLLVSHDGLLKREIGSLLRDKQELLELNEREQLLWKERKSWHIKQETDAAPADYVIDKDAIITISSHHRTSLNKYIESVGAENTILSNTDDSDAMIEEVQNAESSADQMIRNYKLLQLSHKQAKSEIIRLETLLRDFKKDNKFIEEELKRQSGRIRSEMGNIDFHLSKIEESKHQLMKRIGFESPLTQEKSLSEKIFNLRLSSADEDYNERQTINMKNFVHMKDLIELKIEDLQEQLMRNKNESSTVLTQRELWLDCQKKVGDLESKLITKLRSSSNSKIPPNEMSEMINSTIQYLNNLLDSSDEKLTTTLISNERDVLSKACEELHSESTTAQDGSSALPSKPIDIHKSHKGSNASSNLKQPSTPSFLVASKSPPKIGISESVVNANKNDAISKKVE
Kind of series: pull-down.

The series “untagged Atg23” concerns the target B5. In words: ITC.
The series “mass photometry” deals with the molecule itself. In words: mass photometry.
The target in the series “FLAG-tagged Atg9^NTR” is B3. Kind of series: ITC.
Series [3] addresses B8. Kind of series: ITC.
The series “Myc-tagged Atg23” concerns the target B4. In words: pull-down.
In series [4] the target is T3, Atg23^Y16A_K42A_D43A_E380A mutant (S. cerevisiae, UniProt Q06671 1-453, Y16A | K42A | D43A | E380A).
T3 sequence (looked up): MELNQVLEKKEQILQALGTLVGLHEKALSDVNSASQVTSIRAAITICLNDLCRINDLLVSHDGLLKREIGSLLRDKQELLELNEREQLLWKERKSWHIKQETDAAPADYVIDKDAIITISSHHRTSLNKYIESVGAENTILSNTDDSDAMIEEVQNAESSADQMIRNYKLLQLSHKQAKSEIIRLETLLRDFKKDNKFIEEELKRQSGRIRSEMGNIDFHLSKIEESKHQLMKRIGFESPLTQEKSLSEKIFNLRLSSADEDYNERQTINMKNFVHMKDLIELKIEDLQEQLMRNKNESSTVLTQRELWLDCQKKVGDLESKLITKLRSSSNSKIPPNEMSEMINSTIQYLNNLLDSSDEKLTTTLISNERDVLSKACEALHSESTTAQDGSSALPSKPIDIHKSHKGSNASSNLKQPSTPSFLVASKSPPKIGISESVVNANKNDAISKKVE
Kind of series: pull-down.

B1: FLAG-tagged Atg9^CTR_S948D_S969D (domain or fragment, S. cerevisiae, UniProt Q12142 758-997, looked up)
chain: ENSEYVDGLGYVCKYAMFNMKNIDGEDTHSMDEDSLTKKIAVNGSHTLNSKRRSKFTAEDHSDKDLANNKMLQSYVYFMDDYSNSENLTGKYQLPAKKGYPNNEGDSFLNNKYSWRKQFQPGQKPELFRIGKHALGPGHNISPAIYSTRNPGKNWDNNNNGDDIKNGTNNATAKNDDNNGNNDHEYVLTEDFLDSGAFPNHDVIDHNKMLNDNYNGNGILNKGGVLGLVKEYYKKSDVGR
In the case of B1, the binding result in [1] was “binds”.

TRGGSFQDFRAEFIQRSTQFLTSLPEFCKEVVSRILGRSTAQRGGYSAV (domain or fragment, S. cerevisiae, UniProt P46989 223-271, looked up) [SUMO*-Atg27^CTR-StrepII^2x]: the binding result with FLAG-tagged Atg9^CTR [2] was “binds”.

B2: Myc-Atg9^CTR_939-997-StrepII^2x (domain or fragment, S. cerevisiae, UniProt Q12142 939-997, looked up)
chain: NDHEYVLTESFLDSGAFPNHDVIDHNKMLNSNYNGNGILNKGGVLGLVKEYYKKSDVGR
As for B2, the binding result in the series with FLAG-tagged Atg23 is “binds”.

As to B3, the Kd in the series with untagged Atg23 was found to be 6.7 ± 1.2 µM.

As for B4, the “stoichiometry N” value in “mass photometry” came out at 2.

Turning to B5, the “stoichiometry N” value with FLAG-tagged Atg9^NTR and in the series with FLAG-tagged Atg9^CTR [3] was approximately 1 each time.

B6: FLAG-tagged Atg9^CTR_Y989F_Y990F (domain or fragment, S. cerevisiae, UniProt Q12142 758-997, looked up)
chain: ENSEYVDGLGYVCKYAMFNMKNIDGEDTHSMDEDSLTKKIAVNGSHTLNSKRRSKFTAEDHSDKDLANNKMLQSYVYFMDDYSNSENLTGKYQLPAKKGYPNNEGDSFLNNKYSWRKQFQPGQKPELFRIGKHALGPGHNISPAIYSTRNPGKNWDNNNNGDDIKNGTNNATAKNDDNNGNNDHEYVLTESFLDSGAFPNHDVIDHNKMLNSNYNGNGILNKGGVLGLVKEFFKKSDVGR
In the case of B6, the binding result in the series with Myc-tagged Atg23 is reported as “binds”.

B7: FLAG-tagged Atg9^CTR_S948A_S969A (domain or fragment, S. cerevisiae, UniProt Q12142 758-997, looked up)
chain: ENSEYVDGLGYVCKYAMFNMKNIDGEDTHSMDEDSLTKKIAVNGSHTLNSKRRSKFTAEDHSDKDLANNKMLQSYVYFMDDYSNSENLTGKYQLPAKKGYPNNEGDSFLNNKYSWRKQFQPGQKPELFRIGKHALGPGHNISPAIYSTRNPGKNWDNNNNGDDIKNGTNNATAKNDDNNGNNDHEYVLTEAFLDSGAFPNHDVIDHNKMLNANYNGNGILNKGGVLGLVKEYYKKSDVGR
With B7, in the series with Myc-tagged Atg23, the binding result was “binds”.

For the molecule B8, the binding result in series [4] is listed as “binds”. The Kd with untagged Atg23 amounted to 0.54 ± 0.08 µM.
